From US20090186043A1 (BEN GURION UNIVERSITY OF THE NEGEV RESEARCH AND DEVELOPMENT …, published 2009)

Target: T1, Recombinant Fructose Bisphosphate Aldolase (rFBA), FBA-HAT fusion protein, 33.5 kDa (Streptococcus pneumoniae TIGR4, UniProt P0A4S1 1-293)
T1 construct: Expressed in E. coli BL21(DE3)pLysS and purified on Ni-NTA in 8 M urea; also called rFBA-HAT fusion protein; recombinant FBA; not shown: HAT (histidine) tag from the pHAT expression vector
T1 sequence (looked up): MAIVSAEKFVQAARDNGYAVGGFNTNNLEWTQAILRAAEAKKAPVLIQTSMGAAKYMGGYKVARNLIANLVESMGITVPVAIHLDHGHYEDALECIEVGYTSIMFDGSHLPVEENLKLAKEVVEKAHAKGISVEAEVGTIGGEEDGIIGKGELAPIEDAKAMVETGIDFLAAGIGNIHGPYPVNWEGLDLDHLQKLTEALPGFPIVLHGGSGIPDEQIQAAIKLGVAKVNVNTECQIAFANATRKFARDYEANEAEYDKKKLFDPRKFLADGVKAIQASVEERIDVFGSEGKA
Test: Western blot like overlay: rFBA on nitrocellulose probed with FCRP, rabbit anti-FCRP-KLH serum and anti-rabbit IgG

B1: Flamingo Cadherin receptor derived synthetic peptide (FCRP), 15 amino acids (peptide)
peptide: H-ADSDSDSDLSLEEER-OH
notes: Derived from human Flamingo homolog 1 (Q9NYQ7); also called FC peptide; FC derived synthetic peptide
- binding result: binds
